Assays:
CYP79D61 = molecular target: T1, CYP79D61 (Erythroxylum fischeri, UniProt A0A1D8QQQ4); test: aldoxime formation by recombinant yeast microsomes, LC-MS/MS; assay type: biochemical; details: 1 mM substrate, 1 mM NADPH, 75 mM sodium phosphate pH 7.0, 25 °C
T1 construct: complete ORF in pESC-Leu2d, Saccharomyces cerevisiae WAT11 microsomes
T1 sequence (A0A1D8QQQ4 1-531): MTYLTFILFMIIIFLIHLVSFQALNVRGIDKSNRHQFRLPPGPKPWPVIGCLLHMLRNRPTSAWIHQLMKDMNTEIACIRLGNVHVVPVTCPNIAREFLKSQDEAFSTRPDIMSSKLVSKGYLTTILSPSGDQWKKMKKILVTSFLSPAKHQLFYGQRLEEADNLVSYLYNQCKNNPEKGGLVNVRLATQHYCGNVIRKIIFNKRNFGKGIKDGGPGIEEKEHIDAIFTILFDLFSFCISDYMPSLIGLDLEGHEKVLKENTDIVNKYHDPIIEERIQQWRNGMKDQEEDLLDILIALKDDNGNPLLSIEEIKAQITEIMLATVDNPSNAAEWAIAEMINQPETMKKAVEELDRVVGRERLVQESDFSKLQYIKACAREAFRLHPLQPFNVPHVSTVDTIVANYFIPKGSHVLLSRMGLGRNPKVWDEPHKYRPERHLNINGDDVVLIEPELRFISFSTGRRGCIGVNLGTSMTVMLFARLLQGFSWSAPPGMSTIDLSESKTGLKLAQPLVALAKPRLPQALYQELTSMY

[1] = substrate: N[C@@H](Cc1c[nH]c2ccccc12)C(=O)O; test: as above; assay type: biochemical, Erythroxylum coca; details: 1 mM NADPH, 75 mM sodium phosphate pH 7.0, 25 °C
Text: aldoxime formation by recombinant yeast microsomes, LC-MS/MS on CYP79D63

[2] = substrate: N[C@@H](Cc1ccc(O)cc1)C(=O)O; test: cells, lysate or membranes; details: 1 mM NADPH, 75 mM sodium phosphate pH 7.0, 25 °C
[3] = substrate: CC[C@H](C)[C@H](N)C(=O)O; test: cells, lysate or membranes; details: 1 mM NADPH, 75 mM sodium phosphate pH 7.0, 25 °C
[4] = substrate: N[C@@H](Cc1c[nH]c2ccccc12)C(=O)O; test: aldoxime formation by recombinant yeast microsomes, LC-MS/MS; assay type: biochemical, Erythroxylum coca; details: 1 mM NADPH, 75 mM sodium phosphate pH 7.0, 25 °C; remark: listed apart in the source
[5] = substrate: N[C@@H](Cc1ccccc1)C(=O)O; test: as above; assay type: biochemical, Erythroxylum coca; details: 1 mM NADPH, 75 mM sodium phosphate pH 7.0, 25 °C
[6] = substrate: N[C@@H](Cc1c[nH]c2ccccc12)C(=O)O; test: as above; assay type: biochemical, Erythroxylum fischeri; details: 1 mM NADPH, 75 mM sodium phosphate pH 7.0, 25 °C
[7] = substrate: N[C@@H](Cc1ccccc1)C(=O)O; test: as above; assay type: biochemical, Erythroxylum fischeri; details: 1 mM NADPH, 75 mM sodium phosphate pH 7.0, 25 °C

Molecule: N[C@@H](Cc1ccccc1)C(=O)O [L-Phe]
- aldoxime formation by recombinant yeast microsomes, LC-MS/MS (CYP79D61): CYP79D62, CYP79D60, and CYP79D61 accepted all tested amino acids

B1: CYP79D63 (Erythroxylum coca) (protein)
chain: MTYLILILIMIISFLIHLVSFQALNVRGSGKSNRHQFQLPPGPKPWPVIGCLPQMLRNRPTFAWIHQLMKDMNTEIACIRLGSIHVIPVTCPNIAREILKSQDEAFSSRPDFMSSTLVSRGYLATTLSPPGDQWKKMRKILVTSCLSPAKHRLFYRKRLEVADNLVSYLYSQCKDNPEKGGLVNVRLATQHYCGNVIRKIVFNKRNFGKGMKDGGPGIEEKEHIDALFTILFYVFSFCISDYMPSLIGLDLEGHEKVLKENTDIVNKYHDPIIQERIRQWRNGMKDQEEDLLDILIALKDNNGNPLLSIEEIKAQITEIVLASVDNPSNAAEWAIAEMINQPKIMKKAVEELDSVVGSERLVQESDFSKLQYVKACAREAFRLHPMQPFNVPHVSTMDTTIANYFIPKGSHVLLSRMRLGRNSKVWDEPHKYRPERHLSNGDDVLLIEPELRFISFSTGRRGCIGVNLGTSMTIMLFARLLQGFNWSAPPGKSAVDLNESKIGLTLAQPLVALAKPRLPQALYQELTSCINHS
notes: complete ORF in pESC-Leu2d, Saccharomyces cerevisiae WAT11 microsomes
- Km [1]: 480 ± 50 µM

B2: CYP79D62 (Erythroxylum coca) (protein)
chain: MTYLILILIMIILVSFQALNVRCNDKSNRHQLQLPPGPKPWPVIGCLPQMLRNRPTFAWIHQLMKDMNTEIACIRLGNVHVIPVTCPNIAREFLKSQDEAFSSRPDFMSNKLVSKRYLTTALSPSGDQWKKMKKILVTSFLSPAKHQLFYGKRLEEADNLVSYLYGQCKNNPEKGGLVNVRLATRHYCGNVIRKIVFNKRNFGEGMKDGGPGIEEKEHIDAIFTILSYLFSFCISDYMPSLIGLDLEGHEKVLKENTDIVNKYHDPIIEERIQQWRNGMKDREEDLLDILIALKDDNGNPLLSIEEIKAQITEIILATVDNPSNAAEWAIAEMINQPEMMKKAVEELDRVVGRERLVQESDFVKLQYVKACAREAFRLHPLEPFNIPHVSTVDTTVANYFIPKGSHVLLSRMGLGRNPKVWDEPHKYKPERHLSNGDDVVLIEPELRFISFSTGRRGCIGVNLGTSMTVMLFARLLQGFSWSAPPGKLAINLNESKTGLALAQPLVALAKPRLPQALYQELTSCINHS
notes: as for B1
- Km [2]: 4990 ± 460 µM
- Km [3]: 3270 ± 420 µM
- Km [4]: 1090 ± 40 µM
- Km [5]: 670 ± 70 µM

B3: CYP79D60 (Erythroxylum fischeri) (protein)
chain: MTYLILILIMIITFLIHLVSFQALNVRGSDKSNRQQFQLPPGPKPWPVIGCLLQMLRNRPTSAWIHQLMKDMNTEIACIRLGNVHVIPVTCPNIAREFLKSQDEAFSSRPDFMSNKLVSKGYLTTALSPSGDQWKKMKKILVTSFLSPAKHKLFYGKRLEEADHLVSYLYNQCKNNPEKGGLVNVRLATQHYCGNVIRKIVFNKRNFGKGMEDGGPGIEEKEHIDALFTILFYLFSFCISDYMPSLIGLDLEGHEKVLRENTDIVNKYHDPIIEERIQQWRNGMKDQEEDLLDILIALKDDNGSPLLSIEEIKAQITEIMIAAVDNPSNAAEWAIAEMINQPETMKKAVEELDRAVGRERLVQESDFSKLKYIKACAREAFRLHPMEAFNVPHVSTVDTIVANYFIPKGSHVLLSRMGIGRNPKVWDEPHKYKPERHLKNGDDVVLTEPELRFISFSTGRRGCIGVNLGTSMTVMLFARLLQGFSWSAPPGMSTIDLSESKTGLKLAQPLVALAKPRLPQALYQELTSCINHS
notes: as for B1
- Km [2]: 6090 ± 1320 µM
- Km [3]: 1280 ± 250 µM
- Km [6]: 2740 ± 110 µM
- Km [7]: 580 ± 50 µM

From article PMC5050915, “CYP79D enzymes contribute to jasmonic acid-induced formation of aldoximes and other nitrogenous volatiles in two Erythroxylum species” (BMC Plant Biology, 2016)
